Experimental data reported in patent US20110177074A1 (ZymoGenetics, published 2011).

How the values were obtained:
human VEGF-A165 [1] = biological target: T1, human VEGF-A165 (human, UniProt P15692 207-395); test: SPR, VEGF-A immobilised, positive control, 1:1 dissociation fit
T1 construct: R&D Systems; homodimer; also called recombinant human VEGF-A

human VEGF-A165 [2] = biological target: T1, human VEGF-A165; test: SPR (Biacore T100), VEGF-A immobilised, VEGFR-2-Fc5 analyte, bivalent analyte fit

- koff (human VEGF-A165 [1]): ~0.0002 s⁻¹
- Ka (human VEGF-A165 [2]): 1e+08 M⁻¹
- Kd (human VEGF-A165 [2]): 10 nM
- koff (human VEGF-A165 [2]): 0.0002 s⁻¹
- kon (human VEGF-A165 [2]): 20000 M⁻¹ s⁻¹
B1: human VEGFR-2-Fc5 (Fc fusion)
chain: not shown
notes: also called VEGF Receptor-2
